Measured values reported in PMC6101569 (Nucleic Acids Research, 2018).

Key:
[1] = target: H2A-H2B histone dimer from Drosophila melanogaster (Drosophila melanogaster, UniProt P84051 2-121; P02283 2-123); test: ITC
[2] = target: (H3-H4)2 histone tetramer from Drosophila melanogaster (Drosophila melanogaster, UniProt P02299 2-136; P84040 2-103); test: ITC

Kd [1]: 940 nM
Kd [2]: 3.81 µM
B1: APLF acidic domain (APLF^AD), Homo sapiens APLF residues 450-511, wild type (domain or fragment)
chain: DEDNDNVGQPNEYDLNDSFLDDEEEDYEPTDEDSDWEPGKEDEEKEDVEELLKEAKRFMKRK
